Data on 2 molecules can be found in article PMC4175327, “Distinguishing Closely Related Amyloid Precursors Using an RNA Aptamer*”.

The target in data set [1] is T1, human beta2-microglobulin (hβ2m), monomer (human, UniProt P61769 21-119). Kind of data set: intrinsic Trp fluorescence quenching; EC50; Hill slope 0.99 ± 0.06; 1 uM protein; 50 mM MES, 120 mM NaCl, pH 6.2; fluorescence and NMR at 25 °C (NMR plus 0.02% azide, 0.1 mM EDTA, 10% D2O); SPR temperature not stated. Conditions: tags: biotin (N terminus, Lys-7 and/or Lys-92), immobilized, for SPR; hairpin with bulges, U tetraloop.
T1 sequence (P61769 21-119): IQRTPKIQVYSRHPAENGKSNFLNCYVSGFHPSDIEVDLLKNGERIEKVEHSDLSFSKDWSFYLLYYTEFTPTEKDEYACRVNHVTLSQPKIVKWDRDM

Data set [2] concerns the target T1, human beta2-microglobulin (hβ2m), …. Nature of the data set: intrinsic Trp fluorescence quenching; 1 uM protein; 50 mM MES, 120 mM NaCl, pH 6.2; fluorescence and NMR at 25 °C (NMR plus 0.02% azide, 0.1 mM EDTA, 10% D2O); SPR temperature not stated. Conditions: tags: biotin (N terminus, Lys-7 and/or Lys-92), immobilized, for SPR; hairpin with bulges, U tetraloop.

On to GGGAAUUCUGAGCUACUCCCUUUUGGGCCCGGCUAUGAUUCCCG (XNA, 2'-fluoro C and U (3'-terminal G is ribo)) [2'F B6min], for which the “apparent K (half saturation)” value in data set [1] stood at 223 ± 10 nM. As to GGGAAUUCUGAGCUACUCCCUUUUGGGCCCGGCUAUGAUUCCCG (structured_RNA, none (2'OH)) [2'OH B6min], the binding result in data set [2] is given as “no binding”.
